Measured values taken from patent publication US20220340635A1 (ZHEJIANG DOER BIOLOGICS, published 2022).

Assays:
Assay in all cases: cell-based or functional assay
GCGR = target: GCGR
human GLP-1R = human GLP-1R (human, UniProt P43220 24-463)
β-klotho (KLB) = target: β-klotho (KLB)

Binder	GCGR agonist activity (EC50, nM) (GCGR) [nM]	GLP-1R agonist activity (EC50, nM) (human GLP-1R) [nM]	FGF21 activity (EC50, nM) (β-klotho (KLB)) [nM]
A352L1F8L5W (Fc fusion) HSQGTFTSDYSKYLDSQAAQDFVQWLLAGGPSSGAPPPSGGGGSGGGGSGGGGSAESKYGPPCPPCPAPEAAGGPSVFLFPPKPKDTLMISRTPEVTCVVVDVSQEDPEVQFNWYVDGVEVHNAKTKPREEQFASTYRVVSVLTVLHQDWLNGKEYKCKVSNKGLPSSIEKTISKAKGQPREPQVYTLPPSQEEMTKNQVSLTCLVKGFYPSDIAVEWESNGQPENNYKTTPPVLDSDGSFFLYSRLTVDKSRWQEGNVFSCSVMHEALHNHYTQKSLSLSLGGGGGAGGGGAGGGGAHPIPDSSPLLQFGGQVRQRYLYTDDAQQTEAHLEIREDGTVGGAADQSPESLLQLKALKPGVIQILGVKTSRFLCQRPDGALYGSLHFDPEACSFRELLLEDGYNVYQSEAHGLPLHLPGNKSPHRDPAPRGPARFLPLPGLPPALPEPPGILAPQPPDVGSSDPLSMVGPSQGRSPSYAS	1.22	1.34	0.55
A382L1F8L5M1 (Fc fusion) HSQGTFTSDYSKYLDSQAAQDFVQWLLDGGPSSGAPPPSGGGGSGGGGSGGGGSAESKYGPPCPPCPAPEAAGGPSVFLFPPKPKDTLMISRTPEVTCVVVDVSQEDPEVQFNWYVDGVEVHNAKTKPREEQFASTYRVVSVLTVLHQDWLNGKEYKCKVSNKGLPSSIEKTISKAKGQPREPQVYTLPPSQEEMTKNQVSLTCLVKGFYPSDIAVEWESNGQPENNYKTTPPVLDSDGSFFLYSRLTVDKSRWQEGNVFSCSVMHEALHNHYTQKSLSLSLGGGGGAGGGGAGGGGAHPIPDSSPLLQFGGQVRQRYLYTDDAQQTEAHLEIREDGTVGGAADQSPESLLQLKALKPGVIQILGVKTSRFLCQRPDGALYGSLHFDPEACSFRERLLEDGYNVYQSEAHGLPLHLPGNKSPHRDPAPRGPARFLPLPGLPPALPEPPGILAPQPPDVGSSDPLSMVGGSQGRSPSYES	1.2	1.13	0.79
A352L1F8L5M1 (Fc fusion) HSQGTFTSDYSKYLDSQAAQDFVQWLLAGGPSSGAPPPSGGGGSGGGGSGGGGSAESKYGPPCPPCPAPEAAGGPSVFLFPPKPKDTLMISRTPEVTCVVVDVSQEDPEVQFNWYVDGVEVHNAKTKPREEQFASTYRVVSVLTVLHQDWLNGKEYKCKVSNKGLPSSIEKTISKAKGQPREPQVYTLPPSQEEMTKNQVSLTCLVKGFYPSDIAVEWESNGQPENNYKTTPPVLDSDGSFFLYSRLTVDKSRWQEGNVFSCSVMHEALHNHYTQKSLSLSLGGGGGAGGGGAGGGGAHPIPDSSPLLQFGGQVRQRYLYTDDAQQTEAHLEIREDGTVGGAADQSPESLLQLKALKPGVIQILGVKTSRFLCQRPDGALYGSLHFDPEACSFRERLLEDGYNVYQSEAHGLPLHLPGNKSPHRDPAPRGPARFLPLPGLPPALPEPPGILAPQPPDVGSSDPLSMVGGSQGRSPSYES	1.2	1.13	0.79
A137L1F8L5M3 (Fc fusion) YSEGTFTSDYSKYLDSQAAQDFVQWLLDGGPSSGAPPPSGGGGSGGGGSGGGGSAESKYGPPCPPCPAPEAAGGPSVFLFPPKPKDTLMISRTPEVTCVVVDVSQEDPEVQFNWYVDGVEVHNAKTKPREEQFASTYRVVSVLTVLHQDWLNGKEYKCKVSNKGLPSSIEKTISKAKGQPREPQVYTLPPSQEEMTKNQVSLTCLVKGFYPSDIAVEWESNGQPENNYKTTPPVLDSDGSFFLYSRLTVDKSRWQEGNVFSCSVMHEALHNHYTQKSLSLSLGGGGGAGGGGAGGGGADSSPLLQFGGQVRQRYLYTDDAQQTEAHLEIREDGTVGGAADQSPESLLQLKALKPGVIQILGVKTSRFLCQRPDGALYGSLHFDPEACSFRELLLEDGYNVYQSEAHGLPLHCPGNKSPHRDPAPRGPCRFLPLPGLPPALPEPPGILAPQPPDVGSSDPLAMVGPSQGRSPSYAS	41.2	59.1	0.82
A175L1F8L5M3 (Fc fusion) YSEGTFTSDYSKYLDSQAAQDFVQWLLAGGPSSGAPPPSGGGGSGGGGSGGGGSAESKYGPPCPPCPAPEAAGGPSVFLFPPKPKDTLMISRTPEVTCVVVDVSQEDPEVQFNWYVDGVEVHNAKTKPREEQFASTYRVVSVLTVLHQDWLNGKEYKCKVSNKGLPSSIEKTISKAKGQPREPQVYTLPPSQEEMTKNQVSLTCLVKGFYPSDIAVEWESNGQPENNYKTTPPVLDSDGSFFLYSRLTVDKSRWQEGNVFSCSVMHEALHNHYTQKSLSLSLGGGGGAGGGGAGGGGADSSPLLQFGGQVRQRYLYTDDAQQTEAHLEIREDGTVGGAADQSPESLLQLKALKPGVIQILGVKTSRFLCQRPDGALYGSLHFDPEACSFRELLLEDGYNVYQSEAHGLPLHCPGNKSPHRDPAPRGPCRFLPLPGLPPALPEPPGILAPQPPDVGSSDPLAMVGPSQGRSPSYAS	39.2	47.1	0.63
